One block for each molecule: values may come before it.
Columns and labels:
[1] = target: Flt4 receptor tyrosine kinase (VEGFR-3) expressed on cells (human) (UniProt P35916); experiment: Scatchard analysis with 125I-labelled VEGF-C ΔNΔCHis (cell binding, PAE/VEGFR-3 cells)
[2] = target: T1, recombinant Flt4 extracellular domain with C-terminal 6xHis tag (baculovirus), coupled to Sepharose (human, UniProt P35916 25-775); experiment: depletion with Flt4EC affinity matrix, read out by VEGFR-2 phosphorylation
T1 construct: extracellular domain; also called Flt4EC; Flt4 EC
T1 sequence: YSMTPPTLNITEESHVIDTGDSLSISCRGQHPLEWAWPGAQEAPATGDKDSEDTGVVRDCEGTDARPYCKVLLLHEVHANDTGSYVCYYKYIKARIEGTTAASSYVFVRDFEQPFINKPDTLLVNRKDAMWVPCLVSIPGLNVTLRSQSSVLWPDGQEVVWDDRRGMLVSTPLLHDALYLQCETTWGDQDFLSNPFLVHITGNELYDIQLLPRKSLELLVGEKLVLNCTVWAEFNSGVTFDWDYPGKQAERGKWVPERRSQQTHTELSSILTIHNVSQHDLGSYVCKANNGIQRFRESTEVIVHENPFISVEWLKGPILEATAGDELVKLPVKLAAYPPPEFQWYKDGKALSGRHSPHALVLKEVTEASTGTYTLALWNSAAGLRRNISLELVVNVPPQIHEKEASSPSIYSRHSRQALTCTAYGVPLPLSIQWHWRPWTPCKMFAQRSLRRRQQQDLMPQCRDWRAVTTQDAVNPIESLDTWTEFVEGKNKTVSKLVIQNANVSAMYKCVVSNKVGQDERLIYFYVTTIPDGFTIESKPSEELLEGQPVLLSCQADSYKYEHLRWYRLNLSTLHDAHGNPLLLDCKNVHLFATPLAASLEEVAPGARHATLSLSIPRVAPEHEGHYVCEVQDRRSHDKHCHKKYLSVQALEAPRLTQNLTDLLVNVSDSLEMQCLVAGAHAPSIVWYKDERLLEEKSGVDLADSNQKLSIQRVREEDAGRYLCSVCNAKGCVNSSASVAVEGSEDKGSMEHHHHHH

[3] = target: T2, 32 kD VEGF-C polypeptide (amino acids 32-227 of prepro-VEGF-C) (human, UniProt P49767 32-227); experiment: non-reducing and reducing SDS-PAGE of immunoprecipitates
T2 construct: also called 32 kD form; 31 kD
T2 sequence: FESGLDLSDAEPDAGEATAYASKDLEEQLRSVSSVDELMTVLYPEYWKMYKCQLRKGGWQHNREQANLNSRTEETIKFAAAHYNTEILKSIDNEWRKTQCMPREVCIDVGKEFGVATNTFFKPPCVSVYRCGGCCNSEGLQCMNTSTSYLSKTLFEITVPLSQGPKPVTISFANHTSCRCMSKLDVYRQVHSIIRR
Protocol: The immunoprecipitates from each cell culture were subjected to SDS-PAGE under non-denaturing conditions (FIG. 6B). Bands 1-6 were cut out from the gel, soaked for 30 minutes in 1×gel-loading buffer containing 200 mM β-mercaptoethanol, and individually subjected to SDS-PAGE under denaturing conditions (FIGS. 6A and 6C, lanes 1-6).

Kd [1]: 0.135 nM
Molecule: VEGF-C ΔNΔCHis (from UniProt P49767 103-225) (ligand)

binding result [2]: no binding (tested: 50 ng/ml)
B1: recombinant human VEGF165 (ligand)
chain: APMAEGGGQNHHEVVKFMDVYQRSYCHPIETLVDIFQEYPDEIEYIFKPSCVPLMRCGGCCNDEGLECVPTEESNITMQIMRIKPHQGQHIGEMSFLQHNKCECRPKKDRARQENPCGPCSERRKHLFVQDPQTCKCSCKNTDSRCKARQLELNERTCRCDKPRR
notes: Bought protein; also called recombinant human VEGF (R&D Systems)

binding result [3]: binds
B2: 29 kD VEGF-C polypeptide (beginning with amino acid 228 of prepro-VEGF-C) (other)
chain: SLPATLPQCQAANKTCPTNYMWNNHICRCLAQEDFMFSSDAGDDSTDGFHDICGPNKELDEETCQCVCRAGLRPASCGPHKELDRNSCQCVCKNKLFPSQCGANREFDENTCQCVCKRTCPRNQPLNPGKCACECTESPQKCLLKGKKFHHQTCSCYRRPCTNRQKACEPGFSYSEEVCRCVPSYWKRPQMS
notes: C-terminal propeptide; also called 29 kD component; 29 kD form
